This note sets out measurements from patent US20050164926A1 (published 2005).

This test has as its target porcine trypsin (porcine, UniProt P00761 9-231). Description: cell-based or functional assay.

porcine trypsin, sequence (P00761 9-231 limits assumed): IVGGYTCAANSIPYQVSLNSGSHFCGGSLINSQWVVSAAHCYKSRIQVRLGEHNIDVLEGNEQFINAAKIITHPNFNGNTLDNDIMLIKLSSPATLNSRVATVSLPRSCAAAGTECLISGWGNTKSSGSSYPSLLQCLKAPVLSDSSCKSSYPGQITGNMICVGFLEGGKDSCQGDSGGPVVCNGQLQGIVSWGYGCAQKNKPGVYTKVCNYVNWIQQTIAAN

B1: ANV-KAPP (other)
chain: AQVLRGTVTDFPGFDERADAETLRKAMKGLGTDEESILTLLTSRSNAQRQEISAAFKTLFGRDLLDDLKSELTGKFEKLIVALMKPSRLYDAYELKHALKGAGTNEKVLTEIIASRTPEELRAIKQVYEEEYGSSLEDDVVGDTSGYYQRMLVVLLQANRDPDAGIDEAQVEQDAQALFQAGELKWGTDEEKFITIFGTRSVSHLRKVFDKYMTISGFQIEETIDRETSGNLEQLLLAVVKSIRSIPAYLAETLYYAMKGAGTDDHTLIRVMVSRSEIDLFNIRKEFRKNFATSLYSMIKGDTSGDYKKALLLLAGEDDEVCSEQAETGPCRAMISRWYFDVTEGKCAPFFYGGCGGNRNNFDTEEYCMAVCGSAI
On to B1, for which the “apparent stoichiometry of inhibition (amidolysis of S2444, titration of trypsin activity)” value was 1 mol inhibitor per mol enzyme.
